B1: DNA repair protein XRCC4 (Homo sapiens), Q13426 (parent)
chain: MERKISRIHLVSEPSITHFLQVSWEKTLESGFVITLTDGHSAWTGTVSESEISQEADDMAMEKGKYVGELRKALLSGAGPADVYTFNFSKESCYFFFEKNLKDVSFRLGSFNLEKVENPAEVIRELICYCLDTIAENQAKNEHLQKENERLLRDWNDVQGRFEKCVSAKEALETDLYKRFILVLNEKKTKIRSLHNKLLNAAQEREKDIKQEGETAICSEMTADRDPVYDESTDEESENQTDLSGLASAAVSKDDSIISSLDVTDIAPSRKRRQRMQRNLGTEPKMAPQENQLQEKENSRPDSSLPETSKKEHISAENMSLETLRNSSPEDLFDEI

Variants of: B1
Details: with NHEJ1, Q9H9Q4-1
Chain of NHEJ1, Q9H9Q4-1 (Q9H9Q4 whole entry): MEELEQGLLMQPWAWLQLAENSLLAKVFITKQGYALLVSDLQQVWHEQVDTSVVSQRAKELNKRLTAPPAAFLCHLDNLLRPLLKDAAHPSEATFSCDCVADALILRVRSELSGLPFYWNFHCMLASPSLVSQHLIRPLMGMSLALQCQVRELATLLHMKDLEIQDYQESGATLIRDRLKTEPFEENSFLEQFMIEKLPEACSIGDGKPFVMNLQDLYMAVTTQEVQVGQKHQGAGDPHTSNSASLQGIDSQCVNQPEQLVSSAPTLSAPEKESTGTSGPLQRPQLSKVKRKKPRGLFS

Variant | effect of a mutation on the interaction
E55R | disrupting interaction strength
D58R | disrupting interaction strength
M61R | disrupting interaction strength

Second part, the variant after the results:

effect of a mutation on the interaction | Variant
decreasing interaction strength | K65E
disrupting interaction strength | F106E
decreasing interaction strength | F106Y
decreasing interaction strength | F106A

From IntAct's records for PubMed 21768349
